Data: US20220169693A1, “Screening Assays, Modulators and Modulation of Intracellular Signalling Mediated by Immunoglobulin Superfamily Cell Adhesion Molecules” (Monash University, priority 2018, published 2022)

Columns and labels:
Format in all cases: cell-based
[1] = molecular target: T1, full length murine ALCAM1-583 (Mus musculus, UniProt Q61490); assay: Ang II-induced p65/PCNA expression in AT1R-CHO cells transfected with full length murine ALCAM (qRT-PCR)
T1 construct: host or cells: AT1R-CHO (CHO stably transfected with human AT1R-Rluc8), transient transfection; untagged clone in pCMV6
T1 sequence (Q61490 28-583): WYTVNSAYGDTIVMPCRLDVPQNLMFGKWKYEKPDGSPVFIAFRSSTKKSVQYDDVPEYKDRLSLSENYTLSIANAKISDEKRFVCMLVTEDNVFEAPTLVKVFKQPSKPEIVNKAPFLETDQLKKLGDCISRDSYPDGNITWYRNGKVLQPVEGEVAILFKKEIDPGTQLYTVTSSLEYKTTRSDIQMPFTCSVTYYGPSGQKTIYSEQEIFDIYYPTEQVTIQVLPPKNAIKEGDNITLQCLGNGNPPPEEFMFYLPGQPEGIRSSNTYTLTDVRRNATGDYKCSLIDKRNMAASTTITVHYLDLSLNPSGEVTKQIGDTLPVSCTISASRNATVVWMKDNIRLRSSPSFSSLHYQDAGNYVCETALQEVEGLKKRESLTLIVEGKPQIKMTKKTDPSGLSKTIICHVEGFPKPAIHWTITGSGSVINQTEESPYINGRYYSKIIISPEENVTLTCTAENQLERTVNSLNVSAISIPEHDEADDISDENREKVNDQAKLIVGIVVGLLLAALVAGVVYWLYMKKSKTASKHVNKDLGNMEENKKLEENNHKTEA
Protocol: (§1) Adult retinal pigment epithelial (ARPE) cells were cultured in Dulbecco's modified Eagle's medium (DMEM)/F12 endothelial cell growth supplement (ECGS) supplemented media. Chinese Hamster Ovary (CHO) cells were cultured using F12 media (10% FCS with 2 mM glutamine). Human microvascular endothelial cells (HMEC) were cultured in MCDB 131 medium (10% FCS with 10 mM glutamine, EGF and hydrocortisone).
(§2) 100 ng of AT1R-Rluc8 construct was transfected into CHO cells using Lipofectamine 2000 (Thermo). Stable transfectants were selected using G418. AT1R-CHO were then transiently transfected with the IgSF CAM and/or RAGE constructs using Lipofectamine 2000 (Invitrogen) and incubated for 16h.
Oligonucleotides were designed and ordered to generate the ALCAM, BCAM and MCAM intracellular (cytosolic) domains. These included a 5′ NheI site, Kozak sequence and initiating Methionine and then DNA sequences corresponding to ALCAM residues 552-583, BCAM residues 569-628 and MCAM residues 584-637 respectively (Note that as residue 551 of ALCAM is Methionine, the cytosolic tail of ALCAM effectively corresponded to residues 551-583). The pCIneo parental vector was digested with NheI and NotI restriction enzymes, and the DNA of the fragments of the ALCAM, BCAM and MCAM tails/cytosolic domains were ligated into the digested plasmid. After transformation and recovery, colonies were screened and individual clones sequenced. The sequence of the insert was confirmed by DNA sequencing (Micromon, Monash University). A full-length clone of Mouse ALCAM (BC027280) was purchased from Origene. The untagged clone was supplied in the vector pCMV6. […]
After 2 hours of exposure to Ang II (1 μM) cells were placed in Trizol, mRNA extracted and cDNA synthesized. Changes in the gene expression of the NFκB subunit, p65 (RelA) or NFκB-activated target genes (e.g ICAM-1) were estimated by quantitative real-time RT-PCR, performed using the TaqMan system based on real-time detection of accumulated fluorescence (ABI Prism 7700, Perkin-Elmer Inc, PE Biosystems, Foster City, Calif., USA). […]

[2] = molecular target: T2, human ALCAM (ALCAM1-583, cytosolic tail ALCAM551-583) (Homo sapiens, UniProt Q13740); assay: Ang II-induced p65/PCNA expression in AT1R-CHO cells transfected with human ALCAM (full length or cytosolic tail); conditions: Ang II 1 μM, co-transfection (FIG. 3G, 1E)
T2 construct: expressed in transfected cells; host or cells: AT1R-CHO (CHO stably transfected with human AT1R-Rluc8), transient transfection
T2 sequence (Q13740 551-583): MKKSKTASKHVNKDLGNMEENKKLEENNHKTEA
Protocol: as §1, §2
(§3) Oligonucleotides were designed and ordered to generate the ALCAM, BCAM and MCAM intracellular (cytosolic) domains. These included a 5′ NheI site, Kozak sequence and initiating Methionine and then DNA sequences corresponding to ALCAM residues 552-583, BCAM residues 569-628 and MCAM residues 584-637 respectively (Note that as residue 551 of ALCAM is Methionine, the cytosolic tail of ALCAM effectively corresponded to residues 551-583). The pCIneo parental vector was digested with NheI and NotI restriction enzymes, and the DNA of the fragments of the ALCAM, BCAM and MCAM tails/cytosolic domains were ligated into the digested plasmid. After transformation and recovery, colonies were screened and individual clones sequenced. The sequence of the insert was confirmed by DNA sequencing (Micromon, Monash University). A full-length clone of Mouse ALCAM (BC027280) was purchased from Origene. The untagged clone was supplied in the vector pCMV6. Overlapping DNA sequences were ordered to generate the ALCAM559-580 fragment oligonucleotide. These included a 5′ NheI site, Kozak sequence and initiating Methionine and then DNA sequences corresponding to ALCAM residues 559-580. The pCIneo parental vector was digested with NheI and NotI restriction enzymes, and the ALCAM559-580 construct DNA was ligated into the digested plasmid. After transformation and recovery, colonies were screened and individual clones sequenced.
(§4) After 2 hours of exposure to Ang II (1 μM) cells were placed in Trizol, mRNA extracted and cDNA synthesized. Changes in the gene expression of the NFκB subunit, p65 (RelA) or NFκB-activated target genes (e.g ICAM-1) were estimated by quantitative real-time RT-PCR, performed using the TaqMan system based on real-time detection of accumulated fluorescence (ABI Prism 7700, Perkin-Elmer Inc, PE Biosystems, Foster City, Calif., USA). Gene expression was normalized to 18S mRNA and reported as fold change compared to the level of expression in untreated control mice/cells, which were given an arbitrary value of 1.

[3] = system: human ALCAM (ALCAM1-583, cytosolic tail ALCAM551-583); assay: as above; conditions: Ang II 1 μM, co-transfection, text: cytosolic tail ALCAM551-583, legend: full length ALCAM1-583
Protocol: as §1, §2, §3, §4

[4] = system: full length chicken EpCAM; assay: Ang II-induced p65 expression in AT1R-CHO cells transfected with full length chicken EpCAM; conditions: Ang II 1 μM, co-transfection (FIG. 3D)
Protocol: as §1, §2, §4

[5] = molecular target: T3, cytosolic tail of human EpCAM, EpCAM289-314 (Homo sapiens, UniProt P16422); assay: Ang II-induced p65 expression in AT1R-CHO cells transfected with cytosolic tail of EpCAM; conditions: Ang II 1 μM, co-transfection (FIG. 3J)
T3 construct: corresponds to residues 289-314 of EpCAM plus an initiating Methionine; initiating Methionine (N); expressed in transfected cells; host or cells: AT1R-CHO (CHO stably transfected with human AT1R-Rluc8), transient transfection
T3 sequence (P16422 with tags, fused parts or gaps limits assumed): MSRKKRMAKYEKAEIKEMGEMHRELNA
Protocol: as §1, §2, §4

[6] = molecular target: T4, full length RAGE1-404 transactivated by C5a receptor 1 (Homo sapiens, UniProt Q15109); assay: C5a-induced ICAM-1 expression in ARPE cells transfected with C5aR1 and full length RAGE; conditions: C5a 1 μM, co-expression (FIG. 6B)
T4 construct: expressed in transfected cells; host or cells: human ARPE (adult retinal pigment epithelial) cells

full length RAGE1-404 [7] = molecular target: T5, full length RAGE1-404 (Homo sapiens, UniProt Q15109); assay: S100A8/A9-induced PCNA expression in CHO cells transfected with full length RAGE; parameters: expressed in transfected cells; host or cells: CHO cells; conditions: S100A8/A9 1 μM 2 h, co-transfection (FIG. 4B)
full length RAGE1-404 [8] = molecular target: T5, full length RAGE1-404; assay: Ang II-induced p65 expression in AT1R-CHO cells transfected with full length human RAGE; parameters: expressed in transfected cells; host or cells: AT1R-CHO (CHO stably transfected with human AT1R-Rluc8), transient transfection; conditions: Ang II 1 μM 2 h, co-transfection (FIG. 6A)
Protocol: as §1, §2, §4

T5 sequence (Q15109 23-404): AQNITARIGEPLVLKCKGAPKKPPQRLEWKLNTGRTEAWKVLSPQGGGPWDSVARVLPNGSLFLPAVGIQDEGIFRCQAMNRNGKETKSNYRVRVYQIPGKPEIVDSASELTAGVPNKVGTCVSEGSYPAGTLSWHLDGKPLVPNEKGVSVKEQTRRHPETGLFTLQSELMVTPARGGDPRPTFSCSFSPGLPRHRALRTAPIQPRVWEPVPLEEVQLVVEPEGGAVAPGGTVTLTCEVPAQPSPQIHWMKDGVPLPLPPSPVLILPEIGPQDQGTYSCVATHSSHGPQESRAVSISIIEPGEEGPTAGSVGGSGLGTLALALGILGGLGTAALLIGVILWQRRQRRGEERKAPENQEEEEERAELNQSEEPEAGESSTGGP
Sequence of full length chicken EpCAM (as listed by the source): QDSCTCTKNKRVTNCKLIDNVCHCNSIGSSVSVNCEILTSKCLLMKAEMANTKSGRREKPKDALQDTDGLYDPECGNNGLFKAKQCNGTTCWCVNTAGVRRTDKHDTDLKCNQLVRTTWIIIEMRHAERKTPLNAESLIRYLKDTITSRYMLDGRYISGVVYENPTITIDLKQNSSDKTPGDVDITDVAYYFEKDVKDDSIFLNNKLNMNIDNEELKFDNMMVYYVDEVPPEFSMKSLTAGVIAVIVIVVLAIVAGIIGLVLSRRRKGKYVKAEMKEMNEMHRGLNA
T4 sequence (Q15109 23-404): as the sequence (Q15109 23-404) above

MKHVNKDLGNMEENKKLEENNHK [ALCAM559-580]
inhibits: RAGE-dependent induction of ICAM-1 expression following transactivation of RAGE by C5a receptor 1 [6] | induction of p65 expression mediated by full length human RAGE1-404 transactivated by AT1 receptor (full length RAGE1-404 [8])
inhibited: ligand-dependent signalling (PCNA expression) via full length RAGE activated by S100A8/A9 (full length RAGE1-404 [7])
prevents induction: induction of p65-NFκB expression by Ang II via AT1R-dependent transactivation of full length murine ALCAM1-583 ([1]; Ang II 1 μM 2 h, co-transfection of the construct, vs pCIneo (FIG. 3B, 5B)) | p65-NFκB dependent induction of PCNA expression by Ang II via full length murine ALCAM1-583 ([1]; Ang II 1 μM, co-transfection (FIG. 3C)) | induction of p65-NFκB expression by Ang II via transactivation of the cytosolic tail of human ALCAM, ALCAM551-583 [2] | induction of p65-NFκB expression by Ang II via transactivation of human ALCAM (FIG. 3E) [3] | p65-NFκB dependent induction of PCNA expression by Ang II via human ALCAM (FIG. 3F) [3] | induction of p65-NFκB expression by Ang II via transactivation of full length chicken EpCAM [4] | induction of p65-NFκB expression by Ang II via transactivation of EpCAM289-314 [5]
